Reference: patent US20200231684A1 (published 2020)

T1: human IL-36R on cells (human, UniProt Q9HB29 20-575)
T1 sequence (looked up): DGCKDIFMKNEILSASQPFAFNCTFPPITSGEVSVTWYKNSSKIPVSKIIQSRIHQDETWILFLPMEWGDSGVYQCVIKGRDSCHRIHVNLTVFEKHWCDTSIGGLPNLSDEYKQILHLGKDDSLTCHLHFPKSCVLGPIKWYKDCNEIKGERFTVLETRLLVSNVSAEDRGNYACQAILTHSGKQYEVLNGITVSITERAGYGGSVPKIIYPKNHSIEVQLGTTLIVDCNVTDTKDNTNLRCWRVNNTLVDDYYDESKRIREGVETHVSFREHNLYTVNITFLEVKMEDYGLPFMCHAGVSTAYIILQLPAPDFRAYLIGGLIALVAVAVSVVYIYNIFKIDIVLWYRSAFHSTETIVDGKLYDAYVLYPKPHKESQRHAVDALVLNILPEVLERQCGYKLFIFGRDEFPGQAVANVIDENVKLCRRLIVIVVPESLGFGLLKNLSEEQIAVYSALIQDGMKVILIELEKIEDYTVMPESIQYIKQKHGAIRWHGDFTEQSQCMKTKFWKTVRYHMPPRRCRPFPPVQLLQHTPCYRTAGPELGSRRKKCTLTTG

T2: recombinant human IL-36R (ECD) (human, UniProt Q9HB29 20-332)
T2 construct: range 20-332; also called IL-1RL2; IL-1Rrp2
T2 sequence (looked up): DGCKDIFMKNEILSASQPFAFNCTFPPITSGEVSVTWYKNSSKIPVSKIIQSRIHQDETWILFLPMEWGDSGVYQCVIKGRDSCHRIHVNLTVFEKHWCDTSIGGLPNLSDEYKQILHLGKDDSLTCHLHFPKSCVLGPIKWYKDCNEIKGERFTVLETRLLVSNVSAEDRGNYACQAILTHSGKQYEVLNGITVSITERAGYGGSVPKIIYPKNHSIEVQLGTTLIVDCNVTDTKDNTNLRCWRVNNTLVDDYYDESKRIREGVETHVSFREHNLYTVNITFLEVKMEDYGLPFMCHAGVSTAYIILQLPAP

T3: mouse IL-36R (mouse, UniProt Q9ERS7 22-338)
T3 sequence (looked up): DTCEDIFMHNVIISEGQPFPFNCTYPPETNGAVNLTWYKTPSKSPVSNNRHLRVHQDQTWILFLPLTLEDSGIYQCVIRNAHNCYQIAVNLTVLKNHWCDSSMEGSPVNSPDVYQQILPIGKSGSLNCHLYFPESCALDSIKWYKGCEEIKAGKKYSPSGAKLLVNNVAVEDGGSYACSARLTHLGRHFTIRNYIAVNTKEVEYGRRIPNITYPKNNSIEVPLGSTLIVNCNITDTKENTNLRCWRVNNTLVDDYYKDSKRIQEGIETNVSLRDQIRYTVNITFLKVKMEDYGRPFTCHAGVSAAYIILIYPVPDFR

T4: human IL-1R1 (human, UniProt P14778 18-336, limits assumed)
T4 construct: also called IL-1RI
T4 sequence (looked up): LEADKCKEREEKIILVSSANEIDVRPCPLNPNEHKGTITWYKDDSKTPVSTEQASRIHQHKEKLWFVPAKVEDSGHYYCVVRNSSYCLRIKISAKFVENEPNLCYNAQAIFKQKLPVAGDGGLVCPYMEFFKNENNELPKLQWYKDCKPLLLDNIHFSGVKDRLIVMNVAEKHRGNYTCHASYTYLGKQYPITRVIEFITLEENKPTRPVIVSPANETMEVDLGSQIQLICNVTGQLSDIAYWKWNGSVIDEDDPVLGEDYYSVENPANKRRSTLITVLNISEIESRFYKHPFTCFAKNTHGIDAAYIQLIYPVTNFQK


Key:
[1] = biological target: T1, human IL-36R on cells; assay: cell-based or functional assay
[2] = biological target: cynomolgus IL-36R on BaF/3 cells (cynomolgus, UniProt A0A2K5WSK9 20-558); assay: cell-based or functional assay
Sequence of cynomolgus IL-36R on BaF/3 cells (A0A2K5WSK9 entry or part of it): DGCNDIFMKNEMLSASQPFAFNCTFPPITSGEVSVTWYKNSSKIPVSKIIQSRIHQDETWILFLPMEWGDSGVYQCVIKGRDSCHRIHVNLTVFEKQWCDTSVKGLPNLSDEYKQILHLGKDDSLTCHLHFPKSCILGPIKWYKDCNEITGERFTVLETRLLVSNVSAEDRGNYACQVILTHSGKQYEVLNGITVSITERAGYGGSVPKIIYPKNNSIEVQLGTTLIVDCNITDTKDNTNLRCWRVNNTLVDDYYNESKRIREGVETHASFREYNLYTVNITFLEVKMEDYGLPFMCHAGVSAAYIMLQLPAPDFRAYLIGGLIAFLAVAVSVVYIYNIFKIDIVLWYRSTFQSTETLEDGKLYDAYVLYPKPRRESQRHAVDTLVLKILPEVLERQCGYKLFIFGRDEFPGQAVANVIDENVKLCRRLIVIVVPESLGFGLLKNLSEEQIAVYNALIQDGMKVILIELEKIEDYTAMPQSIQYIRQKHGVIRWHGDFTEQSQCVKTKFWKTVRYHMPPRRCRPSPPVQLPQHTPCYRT

[3] = biological target: T1, human IL-36R on cells; assay: cell-based or functional assay; remark: listed apart in the source
[4] = biological target: T2, recombinant human IL-36R (ECD); assay: SPR (ProteOn), single IL-36R surface coat concentration
Protocol: A) Kinetics and binding affinities of anti-IL-36R antibodies binding to recombinant human IL-36R were measured using the Proteon (Bio-Rad, Hercules, Calif.) using material generated from hybridoma following single column purification. […] Binding of the chimeric anti-IL36R IgGs is equivalent to the respective mouse leads.

[5] = biological target: T3, mouse IL-36R; assay: BLI (Fortebio Octet), antibody injected over antigen surface
Protocol: (§1) B) Molecular selectivity over mouse IL-36R and human IL-1R1 The mouse and chimeric anti-IL-36R antibodies were also injected over either a mouse IL-36R or a human IL-1R1 surface at a concentration of 100 nM. The binding signal to mouse IL-36R and to human IL-1R1 for these antibodies measured using the Fortebio Octet (Fortebio, Menlo Park, Calif.) is zero, which indicates these antibodies selectively bind to human IL-36R.

[6] = biological target: T4, human IL-1R1; assay: as above
Protocol: as §1

[7] = biological target: T1, human IL-36R on cells; assay: flow cytometry, HEK293 cells transfected with full-length human IL-36R
Protocol: HEK293 cells transfected with full-length human IL-36R or NCI/ADR-RES cells were passaged for 24 hours prior to staining. Cells were removed from flasks by rinsing with 10 ml of 5 mM EDTA in PBS, and then incubated at 37° C. for 10 min with an additional 10 ml of 5 mM EDTA and 2.5 ml of Accumax to declump/disperse cells. Antibodies were then diluted to specified concentrations in PBS+2% BSA, and cells incubated for 20 min at room temperature. Excess antibody was then washed by adding 200 μl of PBS and then centrifuged. Secondary reagent was then added at 50 μl per well and cells are incubated for 15 min at room temperature and then washed as above. Cells were resuspended in 200 μl PBS and analyzed by flow cytometry.

[8] = biological target: T2, recombinant human IL-36R (ECD); assay: SPR (ProteOn), recombinant human IL-36R at 7 surface densities, global fit
Protocol: A) Kinetics and binding affinities of anti-IL-36R antibodies binding to recombinant human IL-36R were measured using the Proteon (Bio-Rad, Hercules, Calif.) using material generated from hybridoma following single column purification. […] The binding affinities of the mouse antibodies to human IL-36R run at 7 different surface densities (globally fit) is shown in Table 1. Binding of the chimeric anti-IL36R IgGs is equivalent to the respective mouse leads.

IC90, GM-CSF release, NCI/ADR-RES cells, trun-IL-36a [1] [nM] | IC90, GM-CSF release, NCI/ADR-RES cells, trun-IL-36b [1] [nM] | IC90, GM-CSF release, NCI/ADR-RES cells, trun-IL-36g [1] [nM] | IC90, IL-6 release, NCI/ADR-RES cells, trun-IL-36a [1] [nM] | IC90, IL-6 release, NCI/ADR-RES cells, trun-IL-36b [1] [nM] | IC90, IL-6 release, NCI/ADR-RES cells, trun-IL-36g [1] [nM] | IC90, IL-8 release, NCI/ADR-RES cells, trun-IL-36a [1] [nM] | IC90, IL-8 release, NCI/ADR-RES cells, trun-IL-36b [1] [nM] | IC90, IL-8 release, NCI/ADR-RES cells, trun-IL-36g [1] [nM] | IC90, pNFκB, NCI/ADR-RES cells, trun-IL-36a [1] [nM] | IC90, pNFκB, NCI/ADR-RES cells, trun-IL-36b [1] [nM] | IC90, pNFκB, NCI/ADR-RES cells, trun-IL-36g [1] [nM] | IC90, pNFκB, BaF/3 cynomolgus IL-36R cells, trun-IL-36a [2] [nM] | IC90, pNFκB, BaF/3 cynomolgus IL-36R cells, trun-IL-36b [2] [nM] | IC90, pNFκB, BaF/3 cynomolgus IL-36R cells, trun-IL-36g [2] [nM] | IC90, IL-8 release, human primary keratinocytes (NHK), trun-IL-36a [3] [nM] | Kd [4] [nM] | binding result [5] | binding result [6] | Kd [8] [nM] | further results | Binder
0.8 | 0.6 | 0.5 | 0.8 | 0.5 | 0.3 | 0.6 | 0.6 | 0.5 | 1.7 | 1.3 | 1.1 | > 4000 | > 333 | > 333 | 1.5 | < 0.1 | no binding (tested: 100 nM) | no binding (tested: 100 nM) | 0.009 | IC90, IL-8 release, human primary keratinocytes (NHK), trun-IL-36b [3]: 3 nM; IC90, IL-8 release, human primary keratinocytes (NHK), trun-IL-36g [3]: 0.8 nM; IC90, pNFκB, human primary keratinocytes (NHK), trun-IL-36a [3]: 1.8 nM; IC90, pNFκB, human primary keratinocytes (NHK), trun-IL-36b [3]: 2.3 nM; IC90, pNFκB, human primary keratinocytes (NHK), trun-IL-36g [3]: 0.8 nM; EC50 [7]: 0.475 nM | antibody 33D10 (antibody, V domains shown, Mouse monoclonal from hybridoma; also called 33D10B12; Mouse 33D10) VH: QVQLQQSGTELLKPGASVKLSCKASGNTVTSYWMHWVKQRPGQGLEWIGEILPSTGRTNYNENFKGKAMLTVDKSSSTAYMQLSSLASEDSAVYYCTIVYFGNPWFAYWGQGTLVTVSA VL: QIVLTQSPAIMSASLGERVTMTCTASSSVSSSYLHWYQKKPGSSPKLWVYSTSNLASGVPVRFSGSGSGTSYSLTISSMEAEDAATYYCHQHHRSPVTFGSGTKLEMK
4.8 | 1.4 | 2 | 19 | 3.8 | 1.9 | 3.3 | 0.6 | 1.4 | 3.4 | 3.4 | 2.5 | 0.2 | 1.6 | 1.5 | 20.8 | < 0.1 | no binding (tested: 100 nM) | no binding (tested: 100 nM) | 0.057 | IC90, IL-8 release, human primary keratinocytes (NHK), trun-IL-36b [3]: 46 nM; IC90, IL-8 release, human primary keratinocytes (NHK), trun-IL-36g [3]: 2.4 nM; IC90, pNFκB, human primary keratinocytes (NHK), trun-IL-36a [3]: 10.7 nM; IC90, pNFκB, human primary keratinocytes (NHK), trun-IL-36b [3]: 14.4 nM; IC90, pNFκB, human primary keratinocytes (NHK), trun-IL-36g [3]: 1.7 nM | antibody 73C5 (antibody, V domains shown, Mouse monoclonal from hybridoma; also called 73C5C10; Mouse 73C5) VH: QVQLKESGPGLVAPSQSLSITCTVSGFSLTNYAVHWVRQFPGKGLEWLGVIWSDGSTDFNAPFKSRLSINKDNSKSQVFFKMNSLQIDDTAIYYCARKGGYSGSWFAYWGQGTLVTVSA VL: DIVMTQSQKFLSTSVGVRVSVTCKASQDVGTNVLWYQQKIGQSPKPLIYSASYRHSGVPDRFTGSGSGTDFTLIISNVQSEDLAEYFCQQYSRYPLTFGPGTKLELK
1.2 | 1.2 | 0.7 | 17 | 5.3 | 0.8 | 1.9 | 0.5 | 0.5 | 2.7 | 4.2 | 2.2 | 0.6 | 0.9 | 1 | – | < 0.1 | no binding (tested: 100 nM) | no binding (tested: 100 nM) | 0.016 | EC50 [7]: 0.28 nM | antibody 81A1 (antibody, V domains shown, Mouse monoclonal from hybridoma; also called 81A1D1; Mouse 81A1) VH: QVQLKESGPGLVAPSQSLFITCTVSGFSLSSYEINWVRQVPGKGLEWLGVIWTGITTNYNSALISRLSISKDNSKSLVFLKMNSLQTDDTAIYYCARGTGTGFYYAMDYWGQGTSVTVSS VL: DIQMTQTTSSLSASLGDRVTISCRASQDIYKYLNWYQQKPDGTLKLLIYYTSGLHSGVPSRFSGSGSGTDFSLTISNLEPEDIATYFCQQDSKFPWTFGGDTKLEIK
